Substitutions are numbered along the chain they refer to. Where no end group is shown, it is not given here. [ ]: non-standard residue; d: D form. AlaP = not defined here
Experiments:
[1] = molecular target: T1, Proteinase 3 (Homo sapiens, UniProt P24158); test: Protease inhibition assay, second order rate constant kobs/[I] (method of Tian and Tsou); assay type: biochemical
T1 sequence (P24158 28-248): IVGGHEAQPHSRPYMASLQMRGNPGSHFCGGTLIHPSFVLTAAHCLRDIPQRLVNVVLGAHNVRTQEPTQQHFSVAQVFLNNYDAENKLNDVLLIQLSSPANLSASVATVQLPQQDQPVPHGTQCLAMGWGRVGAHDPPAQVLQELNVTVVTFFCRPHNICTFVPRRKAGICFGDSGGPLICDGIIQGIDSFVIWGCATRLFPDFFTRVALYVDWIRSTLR
Method: The compounds of the invention are advantageously selective inhibitors of PR3. […] As described under the Examples below (see PR3 inhibition assay), and as is generally known, efficacy of particular inhibitors against a target protease, for example, recombinant human PR3, is determined by combining the target with a substrate (for example Suc-AanV-SBzI), both in the absence of the inhibitor and in the present of different concentrations of such inhibitor to be tested. Typically, the efficacy of irreversible inhibitors are measured in terms of the second order rate constant of inhibition value (11) or kobs/l. Preferred inhibitors of the invention have typically a kobs/I of more than 10 M^−1s^−1, preferably more than 100 M^−1s^−1, and more preferably of more than […].
(§1) The inactivation of proteases by substrate analog inhibitors in the presence of the substrate by competition for the enzyme-binding site, was measured by the method of Tian and Tsou (17). In this system, product formation in the presence of an irreversible inhibitor approaches an asymptote, as described by
(§2) log([P∞]−[P])=log [P∞]−0.43A[Y]t
(§3) where [P∞] is the concentration of product formed at time approaching infinity, [P] is the concentration of product at time t, [Y] is the inhibitor concentration, and A is the apparent inhibition rate constant in the presence of the substrate. A is given by
(§4) where k+0 is the rate constant for association of the inhibitor with the enzyme, K^−1 is the inverted Michaelis constant, and [S] the substrate concentration. The apparent inhibition rate constant A is the slope of a plot of log([P∞]−[P]) against t, to give the second-order rate constant of inhibition k+0

[2] = molecular target: T2, PR3I217R (Homo sapiens, UniProt P24158, I221R); test: Residual activity of recombinant PR3 mutant in presence of increasing amounts of compound; assay type: biochemical
T2 construct: made in house; host or cells: Drosophila S2 cells
T2 sequence (P24158 28-248 I221R limits assumed): T1 sequence (P24158 28-248) with I194R
Method: (§5) Recombinant PR3K99L and […] were produced in Drosophila S2 cells using the calcium phosphate method, and stable cell lines were selected using puromycin. Proteins were purified by affinity chromatography on Chelating Sepharose and analyzed by SDS-PAGE. The total protein concentration was determined with a BCA Protein Assay
(§6) Phosphonate inhibitors and their biotinylated and fluorescent derivatives were synthesized, purified and controlled by mass spectrometry as reported. Their purity was checked by HPLC (data not shown). Purified Ac-Asp-Tyr-Asp-Ala^P(O—C6H4-4-Cl)2 (compound 1) and Ac-Pro-Tyr-Asp-Ala^P(O—C6H4-4-Cl)2 (compound 2) were first assayed for their inhibitory properties by measuring the residual activity of the human neutrophil serine proteases PR3, HNE and CatG in the presence of increasing amounts of each compound. We used for this purpose the FRET substrates that we developed previously for each protease (18). An almost complete inhibition of PR3 (1 nM final) was obtained after a 30 min incubation time with 20 μM of compound 1 (FIG. 1) and 0.3 μM of compound 2 (FIG. 2). Recombinant PR3K99L, […], HNE and CatG were used in the same experimental conditions. […] This emphasizes the importance of the S2 and S4 subsites to discriminate between PR3 and HNE specificities. Significant inhibition of HNE was obtained using about 100 times more Ac-Pro-Tyr-Asp-Ala^P(O—C6H4-4-Cl)2 than required to inhibit PR3. […] We confirmed this observation kinetically by measuring the second order rate constants kobs/l by competition experiments between the PR3 substrate and each inhibitor (17). As expected the second order rate constant kobs/l for compound 2 was about 100 times greater than that for compound 1 (see Table 1).

[3] = molecular target: T3, PR3K99L (Homo sapiens, UniProt P24158, K115L); test: as above; assay type: biochemical; conditions: Lys99 replaced by Leu in S2 subsite
T3 construct: made in house; host or cells: Drosophila S2 cells
T3 sequence (P24158 28-248 K115L limits assumed): T1 sequence (P24158 28-248) with K88L
Method: as §5, §6

[4] = molecular target: T4, Elastase (Homo sapiens, UniProt P08246); test: Protease inhibition assay, second order rate constant kobs/[I] (method of Tian and Tsou); assay type: biochemical; conditions: n.s where no significant inhibition
T4 sequence (P08246 30-267): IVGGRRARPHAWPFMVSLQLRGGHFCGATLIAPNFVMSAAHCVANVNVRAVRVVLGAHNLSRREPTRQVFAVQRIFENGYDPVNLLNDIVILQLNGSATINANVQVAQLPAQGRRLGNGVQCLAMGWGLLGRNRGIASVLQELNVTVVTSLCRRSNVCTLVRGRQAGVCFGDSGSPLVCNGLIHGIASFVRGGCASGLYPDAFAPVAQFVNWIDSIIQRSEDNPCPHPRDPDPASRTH
Method: as §1, §2, §3, §4

[5] = Stability of inhibitors in neutrophil lysate (preincubation before adding substrates); assay type: in vitro ADME, human; conditions: one hour preincubation of neutrophil lysate-inhibitor mixture
From the text: We first studied the stability and the selectivity of compound 1, 2 and their biotinylated derivatives in a lysate of purified human neutrophils. […] Further, PR3 was selectively inactivated in the neutrophil lysate as shown by western blotting using biotinylated inhibitors.

Ac-Pro-Tyr-Asp-Ala^P(O—C6H4-4-Cl)2 (Ac-PYD[AlaP]; not fully specified (C-terminus); printed as Ac-Pro-Tyr-Asp-Ala^P(O—C6H4-4-Cl)2; reading uncertain; also: C-terminal Ala as phosphonate analogue (Ala^P)) [Compound 2]
Proteinase 3 kobs/[I] [1]: 154 ± 3 M⁻¹ s⁻¹
kobs/I relative to that of compound 1 ([1]; competition between PR3 substrate and inhibitor): about 100 times
inhibition of the Ile217 to Arg217 PR3 mutant compared with PR3K99L [2]: more efficient toward this mutant
sensitivity of PR3K99L to inhibition compared with wt PR3 [3]: far less sensitive to inhibition
Elastase kobs/[I] [4]: n.s
inhibition potential after preincubation in neutrophil lysate [5]: No loss of the inhibition potential

Reference: US20160257710A1, “SELECTIVE INHIBITORS OF PROTEINASE 3” (INSERM (INSTITUT NATIONAL DE LA SANTÉ ET LA RECHERCHE …, priority 2013, published 2016)
